B1: Azoarcus group I ribozyme (parent)
chain: GUGCCUUGCGCCGGGAAACCACGCAAGGGAUGGUGUCAAAUUCGGCGAAACCUAAGCGCCCGCCCGGGCGUAUGGCAACGCCGAGCCAAGCUUCGGCGCCUGCGCCGAUGAAGGUGUAGAGACUAGACGGCACCCACCUAAGGCAAACGCUAUGGUGAAGGCAUAGUCCAGGGAGUGGCGAAAGUCACACAAACCGG

In this data set the parent is B1. The data set is described as follows: reverse-splicing fitness (ratio to wild type); higher = more active; in vitro selection; Mg2+ level not given. The method in brief: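 An in vitro group I ribozyme library with randomized positions was T7-transcribed and gel-purified. In triplicate, 10 pmol RNA in EPPS pH 7.5 was reacted with 50 pmoles of a 30-nt RNA substrate for 1 h at 37 °C across several added MgCl2 levels (1–48 mM), then stopped with EDTA. Products were reverse transcribed from a substrate-complementary primer, PCR-amplified and sequenced (HiSeq 4000). Fitness is a variant's read proportion after selection over that before, normalised to wild type.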
In the case of C82G A120U A145U C150A U176C, the reverse-splicing fitness was 0.0105.

In the case of C82U A111C A145G C150U C169A U176C, the reverse-splicing fitness came out at 0.013.

For the variant C82G A120U C150G C169A U176C, the reverse-splicing fitness was 0.00402.

Turning to C82A A111U A120U A145U C150U C169G, the reverse-splicing fitness was 0.00407.

As for C82G A111C A145G C150A C169G U176A, the reverse-splicing fitness amounted to 0.0149.

C82G A111U A120G A145U C169A U176G: the reverse-splicing fitness was determined as 0.00445.

Consider C82A A111G A120C A145C C150G C169U U176G, for which the reverse-splicing fitness is 0.00527.

With A111C A120U A145U C169G, the reverse-splicing fitness came to 0.0574.

As to C82U A111C A120G C169A, the reverse-splicing fitness turned out to be 0.00844.

With C82G A111G A120C A145C C150U C169G U176G, the reverse-splicing fitness turned out to be 0.0061.

Regarding C82A A111U A120U A145G C169U, the reverse-splicing fitness was 0.00488.

As for C82U A111U A120U A145C C150A C169U U176C, the reverse-splicing fitness stood at 0.00269.

As to C82G A145C C150G C169A, the reverse-splicing fitness turned out to be 0.00875.

In the case of C82A A111U A145G C150A C169A U176C, the reverse-splicing fitness was 0.0242.

A111C A145U C150U: the reverse-splicing fitness came out at 0.731.

C82G A111G A120G A145C C150U: the reverse-splicing fitness stood at 0.00975.

For A111G A120C A145G C150G C169U, the reverse-splicing fitness was 0.0255.

With C82G A120G A145G C150G C169A, the reverse-splicing fitness came to 0.0111.

For C82U A111U A120C A145C C150G C169A, the reverse-splicing fitness is 0.00832.

On to C82U A111U A120C A145G C169A, for which the reverse-splicing fitness was determined as 0.0083.

As for C82G A120C A145U U176G, the reverse-splicing fitness came out at 0.0177.

Consider C82A A111U A120C A145U C169A, for which the reverse-splicing fitness is 0.00981.

As to C82A A111C A120G C150G C169G U176C, the reverse-splicing fitness turned out to be 0.00493.

On to A111G A120U A145C C150A C169G U176G, for which the reverse-splicing fitness came to 0.00195.

Regarding C82G A120C A145U C169A U176C, the reverse-splicing fitness amounted to 0.00989.

On to A111C A145U C150A U176G, for which the reverse-splicing fitness was 0.0589.

Turning to C82G A111U A120G A145C C169U U176C, the reverse-splicing fitness came to 0.0168.

Turning to C82A A120U A145G C150U C169U U176C, the reverse-splicing fitness amounted to 0.00493.

On to C82A A111C C150A C169U U176C, for which the reverse-splicing fitness was found to be 0.0182.

In the case of C82A A111U C150U C169U U176A, the reverse-splicing fitness was found to be 0.0146.

Take C82A A111G A120U A145C C169U U176G: the reverse-splicing fitness turned out to be 0.00153.

Take C82A A145G C150G U176C: the reverse-splicing fitness turned out to be 0.0513.

Turning to C82G A120C A145G C150G C169U U176C, the reverse-splicing fitness stood at 0.0134.

For C82G A111C A120G A145C C150G U176G, the reverse-splicing fitness was determined as 0.00269.

As for C82A A111U A120U C150U U176A, the reverse-splicing fitness stood at 0.00753.

Turning to C82U A111C A145U U176C, the reverse-splicing fitness was determined as 0.103.

For C82G A111G A120G C150U C169G, the reverse-splicing fitness is 0.0154.

In the case of A111U A145C C150A, the reverse-splicing fitness turned out to be 0.23.

A111C A120C A145G: the reverse-splicing fitness was 0.614.

For C82A A111U A145C C150G C169U U176C, the reverse-splicing fitness stood at 0.0103.

As for A111U A120G A145U C150G U176G, the reverse-splicing fitness was determined as 0.00309.

Turning to C82A A111G A120C A145U, the reverse-splicing fitness was determined as 0.0424.

In the case of C82A A111C A120C C150G C169G U176A, the reverse-splicing fitness turned out to be 0.00786.

On to C82G A120C C169A, for which the reverse-splicing fitness is 0.00902.

In the case of C82U A111G A145G U176A, the reverse-splicing fitness came out at 0.201.

Take C82A A111G A120U A145G C150G C169A: the reverse-splicing fitness came to 0.00837.

As for C82U A111U A120U A145G C150G U176C, the reverse-splicing fitness amounted to 0.00721.

For the variant C82U A111G A120C A145C C150A C169G U176C, the reverse-splicing fitness is 0.00993.

Consider C82G A111C A120U C150U C169A U176A, for which the reverse-splicing fitness was determined as 0.00515.

For A111C A145U C150A C169A U176C, the reverse-splicing fitness was found to be 0.0151.

In the case of C82G A111C A120C C150U, the reverse-splicing fitness turned out to be 0.0277.

As for C82U C169U U176C, the reverse-splicing fitness came out at 0.0155.

On to C82G A111C A120G A145U C150G C169G U176C, for which the reverse-splicing fitness was 0.00521.

Regarding C82U A120U C150U C169A U176G, the reverse-splicing fitness was 0.00208.

A111C A145G C150A C169U U176A: the reverse-splicing fitness was determined as 0.0185.

For C82A A111U A120C A145U C169G U176G, the reverse-splicing fitness came to 0.00642.

In the case of C82G A111C A120C A145C C150A C169G U176A, the reverse-splicing fitness is 0.0271.

For the variant C82G A145G C169G U176A, the reverse-splicing fitness was 0.0176.

On to C82U A111U A120G C150G C169A, for which the reverse-splicing fitness was 0.00782.

As for A111C A145G C150U C169G, the reverse-splicing fitness was 0.0511.

Regarding A111U A120G A145U C150U C169A U176G, the reverse-splicing fitness was determined as 0.00508.

For the variant A111U A145U C150A C169G U176G, the reverse-splicing fitness was 0.0065.

For C82G A111C A145G C169A, the reverse-splicing fitness amounted to 0.0104.

On to C82U A120C A145U C169G U176A, for which the reverse-splicing fitness is 0.00692.

Regarding C82U A111G A145G C150G C169A U176G, the reverse-splicing fitness was found to be 0.00737.

Turning to C82A A111U A120G A145G C150G, the reverse-splicing fitness was 0.00699.

Take A120G C150A C169A U176C: the reverse-splicing fitness was found to be 0.0393.

As to C82A A111G A145G C150G U176C, the reverse-splicing fitness amounted to 0.0188.

Consider C82A A111U A120G A145G U176A, for which the reverse-splicing fitness stood at 0.0122.

In the case of C82A A111U A120G A145C C150U C169U U176G, the reverse-splicing fitness is 0.00596.

Turning to C82A A120G A145U C150A C169G U176G, the reverse-splicing fitness was 0.00358.

Turning to C82U A111U A120C A145C C169U U176A, the reverse-splicing fitness stood at 0.013.

Turning to C82G A111G A120G A145C C150U U176A, the reverse-splicing fitness was found to be 0.0118.

In the case of C82G A145G C150A C169A U176G, the reverse-splicing fitness is 0.00731.

Consider C82A A120G C169A U176A, for which the reverse-splicing fitness was found to be 0.0187.

With C82G A111C A145C C150A, the reverse-splicing fitness was determined as 0.016.

With C82G A120C A145U C150U C169A, the reverse-splicing fitness amounted to 0.00933.

Consider A111U C150A, for which the reverse-splicing fitness worked out at 0.372.

On to C82G A111C A120G C169U, for which the reverse-splicing fitness came to 0.00963.

In the case of C82A A120U A145C C150G U176C, the reverse-splicing fitness came out at 0.00832.

Take C150U: the reverse-splicing fitness worked out at 0.878.

In the case of C82U A111C A145C C150A C169A U176A, the reverse-splicing fitness stood at 0.0134.

In the case of C82G A111C A120G A145C C150A C169G, the reverse-splicing fitness is 0.00794.

Regarding C82G A111G A120G A145G C169U U176A, the reverse-splicing fitness turned out to be 0.0188.

(Values after the RNAGym collection of RNA variant scans (doi:10.1093/molbev/msab373).)
